Data on two substances can be found in US12358960B2, “Selective targeting of ubiquitin- and ubiquitin-like E1-activating enzymes by structurally-stabilized peptides” (Dana-Farber Cancer Institute, Inc., priority 2019, dated 2025).

What all share (type): binding
Test [1] concerns the target T1, His-UBA1 (Homo sapiens, UniProt P22314).
T1 sequence (P22314 1-1058): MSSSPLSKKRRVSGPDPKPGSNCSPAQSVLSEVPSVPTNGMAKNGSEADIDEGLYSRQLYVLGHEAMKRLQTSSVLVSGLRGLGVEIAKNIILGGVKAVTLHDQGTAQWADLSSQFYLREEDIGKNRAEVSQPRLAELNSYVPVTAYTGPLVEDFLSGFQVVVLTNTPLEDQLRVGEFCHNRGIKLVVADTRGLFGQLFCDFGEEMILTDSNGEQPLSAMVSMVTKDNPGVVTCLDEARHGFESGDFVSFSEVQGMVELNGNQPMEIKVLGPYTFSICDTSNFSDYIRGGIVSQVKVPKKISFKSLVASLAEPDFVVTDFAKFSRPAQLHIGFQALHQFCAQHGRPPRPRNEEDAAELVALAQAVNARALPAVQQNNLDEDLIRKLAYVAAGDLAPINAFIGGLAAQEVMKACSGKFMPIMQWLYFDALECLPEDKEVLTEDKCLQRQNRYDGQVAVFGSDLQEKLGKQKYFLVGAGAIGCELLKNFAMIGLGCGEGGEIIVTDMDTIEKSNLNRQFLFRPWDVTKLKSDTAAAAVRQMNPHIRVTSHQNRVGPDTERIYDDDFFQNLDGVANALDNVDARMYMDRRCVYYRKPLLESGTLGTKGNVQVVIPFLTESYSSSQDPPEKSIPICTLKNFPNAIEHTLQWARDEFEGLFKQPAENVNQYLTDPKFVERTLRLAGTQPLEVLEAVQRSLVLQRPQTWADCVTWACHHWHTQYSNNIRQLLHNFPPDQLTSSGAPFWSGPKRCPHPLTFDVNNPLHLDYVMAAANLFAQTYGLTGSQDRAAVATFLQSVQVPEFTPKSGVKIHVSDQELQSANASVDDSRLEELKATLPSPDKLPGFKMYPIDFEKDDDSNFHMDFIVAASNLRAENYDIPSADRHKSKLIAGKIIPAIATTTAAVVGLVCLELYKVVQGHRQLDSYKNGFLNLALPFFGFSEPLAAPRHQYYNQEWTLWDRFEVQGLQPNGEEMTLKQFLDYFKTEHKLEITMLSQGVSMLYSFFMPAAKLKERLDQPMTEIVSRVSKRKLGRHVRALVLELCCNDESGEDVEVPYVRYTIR
The test can be described thus: Fluorescence microscopy of Ni-NTA agarose beads with His-UBA1. The note with it: FITC-labeled peptide 10 μM. How it is done:
Fluorescence Microscopy: His-tagged UBA1 (25 μg) was incubated with Ni-NTA agarose beads (100 μl) (Invitrogen™ R90110) in PBS for 30 min. Beads were then incubated for 30 min with FITC-labeled peptide (10 μM). Beads were plated in […] (10 μl/well) (Corning 384-well High Content Imaging Glass Bottom Microplate) and imaged with an Olympus wide-field epifluorescence microscope, a 63×LCPlanFL NA 0.7 objective, and a CoolSNAP DYNO camera.

Test [2] addresses His-p53 (Homo sapiens, UniProt P04637). Put plainly: Fluorescence microscopy of Ni-NTA agarose beads, untagged or with His-p53 control. To be noted: FITC-labeled peptide 10 μM.
Test [3] has as its target T2, UBA1 (Homo sapiens, UniProt P22314).
T2 sequence (P22314 1-1058): T1 sequence (P22314 1-1058)
Put plainly: Streptavidin-biotin pull-down with recombinant protein. To be noted: biotinylated peptide, silver stain. How it is done:
Streptavidin-biotin pull-down assays: For recombinant protein pull-downs, 10 pmol recombinant human UBA1 was incubated with 5 nmol C-terminally biotinylated SAH-UBE2A or DMSO vehicle control in a total volume of 1 mL binding buffer (50 mM NaCl, 20 mM HEPES, pH 7.4, 5 mM DTT) for 1.5 hours at 4° C. 30 μL of pre-equilibrated streptavidin agarose beads were then added and incubated for an additional 1.5 hours at 4° C. The beads were pelleted by centrifugation and washed three times with NP-40 buffer (20 mM HEPES, pH 7.4, 50 mM NaCl, 5 mM DTT, 0.5% [v/v] NP-40) before eluting the protein sample from the beads by heating at 70° C. for 10 min in 3×SDS loading buffer. Samples were subjected to electrophoresis and silver staining (Pierce 24612). […] Proteins were separated by SDS-PAGE gel electrophoresis and detected by western blot against UBE1 (Abcam ab34711). […] Conjugation of ubiquitin to E2 by E1 is monitored by conversion of free E2 (17 kDa) to E2˜ubiquitin conjugate (26 kDa). Quantitation of percent inhibition was calculated from densitometry of silver stain images. Error bars represent ±1 SEM calculated from three independent experiments.

[4] abbreviates: listed as FITC-labeled SAH-UBE2A-11.

Bridge positions count the residues as written; N and C are the ends. Square brackets hold non-standard residues; d marks the D form. Ends that are not written are not given here. R8 = C=CCCCCCC[C@@](C)(N)C(=O)O; S5 = C=CCCC[C@](C)(N)C(=O)O; Nle = CCCC[C@H](N)C(=O)O

Chain of His-p53 (P04637 whole entry): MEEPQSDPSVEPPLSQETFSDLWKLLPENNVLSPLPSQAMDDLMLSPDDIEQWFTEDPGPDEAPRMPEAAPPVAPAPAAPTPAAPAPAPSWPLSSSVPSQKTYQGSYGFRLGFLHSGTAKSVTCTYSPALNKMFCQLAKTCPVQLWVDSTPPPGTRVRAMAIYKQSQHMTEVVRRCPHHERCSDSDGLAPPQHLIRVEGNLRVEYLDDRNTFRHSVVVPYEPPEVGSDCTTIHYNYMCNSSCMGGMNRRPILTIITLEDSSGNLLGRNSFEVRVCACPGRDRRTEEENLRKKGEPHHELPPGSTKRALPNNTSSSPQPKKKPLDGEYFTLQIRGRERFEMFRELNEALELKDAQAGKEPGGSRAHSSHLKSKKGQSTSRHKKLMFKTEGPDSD

On to “FITC-SAH-UBE2A: FITC conjugated to SEQ ID NO: 132 ([Nle]STP[R8]RRRL[Nle]R[S5]FKRLQ; staple 5-12; not fully specified (C-terminus); also: FITC conjugate, site not settled)”, for which the “binding of FITC-labeled peptide to Ni-NTA beads with His-UBA1” value is “only bound to the beads in the presence of His-UBE1” in test [1] and “binds specifically to Ni-NTA beads tagged with His-UBA1” in test [1] (setting [4]). Also, the “binding of FITC-labeled peptide to untagged beads or His-p53 beads” value in test [2] is given as “did not bind nonspecifically to the beads (top row) or to His-p53”; in test [2] (setting [4]), “did not engage untagged beads or beads tagged with an unrelated protein (His-p53)”.

Turning to “biotinylated SAH-UBE2A: C-terminally biotinylated SAH-UBE2A (Ac-[Nle]STP[R8]RRRL[Nle]R[S5]FKRLQ-biotin; staple 5-12)”, in test [3], the “direct binding to recombinant UBA1, streptavidin capture” value is “direct binding of biotinylated SAH-UBE2A to recombinant UBA1”.
